Assay results from the supplement of paper PMC10567573.

B1: TOR1AIP2 (parent)
chain: YTSSQKVSPIQIDGAGRTWQDSDT

Variants of: B1
Test: protein stability index of a GFP-peptide fusion (GPS, HEK-293T) (PSI 1-6); higher = more stable
Settings: c terminus: a fixed tail appended
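Also: lentivirally expressed fusions sorted by FACS into six bins by GFP to DsRed ratio, PSI derived from sequencing read proportions per bin multiplied by bin number.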

In order of falling protein stability index:
1. YTSSQKVSPIWIDGAGRTWQDSDT  5.21
2. YTSSQKVSPIQEDGAGRTWQDSDT  5
3. YTSSQKVSPIQGDGAGRTWQDSDT  4.59
4. YTSSQKVSPEQIDGAGRTWQDSDT  4.58
5. YTSSQKVEPIQIDGAGRTWQDSDT  4.47
6. YTSSQKVSPIQIDCAGRTWQDSDT  4.45
7. YTSSQKVSPIQIDGAGETWQDSDT  4.4
8. YTSSQKVSSIQIDGAGRTWQDSDT  4.38
9. YTSSQKVSPDQIDGAGRTWQDSDT  4.32
10. YTSSQKVSEIQIDGAGRTWQDSDT  4.28
11. YTSSQKVSPIQIDGAGPTWQDSDT  4.25
12. YTSSQKVSPIQHDGAGRTWQDSDT  4.21
13. YTSSQKVSPNQIDGAGRTWQDSDT  4.2
14. YTSSQKVSPPQIDGAGRTWQDSDT  4.18
15. YTSSQKVSPIQIDGAGDTWQDSDT  4.16
16. YTSSQKVSPIQDDGAGRTWQDSDT  4.12
17. YTSSQKVSPVQIDGAGRTWQDSDT  4.1
18. YTSSQKVSPIQQDGAGRTWQDSDT  4.03
19. YTSSQKVSPIQIDGADRTWQDSDT  4.01
20. YTSSQKVNPIQIDGAGRTWQDSDT  4
21. YTSSQKVSPQQIDGAGRTWQDSDT  4
22. YTSSQKVSPIQPDGAGRTWQDSDT  3.99
23. YTSSQKVSTIQIDGAGRTWQDSDT  3.98
24. YTSSQKVSPIDIDGAGRTWQDSDT  3.96
25. YTSSQKVSPTQIDGAGRTWQDSDT  3.96
26. YTSSQKVSPIQIDGAGSTWQDSDT  3.96
27. YTSSQKVSPIKIDGAGRTWQDSDT  3.95
28. YTSSQKVSDIQIDGAGRTWQDSDT  3.94
29. YTSSQKVSPIQIDEAGRTWQDSDT  3.94
30. YTSSQKVSPIPIDGAGRTWQDSDT  3.93
31. YTSSQKVSPSQIDGAGRTWQDSDT  3.93
32. YTSSQKVSPIQIDGDGRTWQDSDT  3.85
33. YTSSQKVSPGQIDGAGRTWQDSDT  3.85
34. YTSSQKVSPIEIDGAGRTWQDSDT  3.81
35. YTSSQKVSPIQIDGAGQTWQDSDT  3.79
36. YTSSQKVSPAQIDGAGRTWQDSDT  3.77
37. YTSSQKVSPRQIDGAGRTWQDSDT  3.76
38. YTSSQKVSPIQKDGAGRTWQDSDT  3.76
39. YTSSQKVSLIQIDGAGRTWQDSDT  3.74
40. YTSSQKVSPISIDGAGRTWQDSDT  3.73
41. YTSSQKVSPIQIDGNGRTWQDSDT  3.71
42. YTSSQKVSKIQIDGAGRTWQDSDT  3.71
43. YTSSQKVSPIQADGAGRTWQDSDT  3.68
44. YTSSQKVSPIHIDGAGRTWQDSDT  3.67
45. YTSSQKVSPIQIDGAGCTWQDSDT  3.66
46. YTSSQKVSPIQIDGAGATWQDSDT  3.66
47. YTSSQKVSPIQIDGAMRTWQDSDT  3.65
48. YTSSQKVSPIQTDGAGRTWQDSDT  3.65
49. YTSSQKVSPIQNDGAGRTWQDSDT  3.65
50. YTSSQKVSPIQIDGAGVTWQDSDT  3.64
51. YTSSQKVSPIQIDGAGGTWQDSDT  3.63
52. YTSSQKVSPIQRDGAGRTWQDSDT  3.63
53. YTSSQKVSPIQIDGAGTTWQDSDT  3.6
54. YTSSQKVSPIQIDGAGITWQDSDT  3.59
55. YTSSQKVSPIQIDQAGRTWQDSDT  3.57
56. YTSSQKVSPITIDGAGRTWQDSDT  3.56
57. YTSSQKVSPIQIDGAGKTWQDSDT  3.54
58. YTSSQKVSPIQIDGEGRTWQDSDT  3.52
59. YTSSQKVAPIQIDGAGRTWQDSDT  3.52
60. YTSSQKVSPLQIDGAGRTWQDSDT  3.52
61. YTSSQKVSPIQIDSAGRTWQDSDT  3.51
62. YTSSQKVSPIQIDNAGRTWQDSDT  3.5
63. YTSSQKVSPHQIDGAGRTWQDSDT  3.5
64. YTSSQKVSPIQMDGAGRTWQDSDT  3.5
65. YTSSQKVSNIQIDGAGRTWQDSDT  3.49
66. YTSSQKVKPIQIDGAGRTWQDSDT  3.46
67. YTSSQKVSPIQIDDAGRTWQDSDT  3.46
68. YTSSQKVSGIQIDGAGRTWQDSDT  3.45
69. YTSSQKVSQIQIDGAGRTWQDSDT  3.44
70. YTSSQKVSPMQIDGAGRTWQDSDT  3.44
71. YTSSQKVSPIQIDGAHRTWQDSDT  3.41
72. YTSSQKVSPINIDGAGRTWQDSDT  3.4
73. YTSSQKVSPIQIDTAGRTWQDSDT  3.38
74. YTSSQKVSRIQIDGAGRTWQDSDT  3.37
75. YTSSQKVSPIQIDAAGRTWQDSDT  3.37
76. YTSSQKVSPIQIDGTGRTWQDSDT  3.36
77. YTSSQKVTPIQIDGAGRTWQDSDT  3.36
78. YTSSQKVSPIQIDGQGRTWQDSDT  3.35
79. YTSSQKVSAIQIDGAGRTWQDSDT  3.34
80. YTSSQKVSPIQIDGAKRTWQDSDT  3.33
81. YTSSQKVSPIQIEGAGRTWQDSDT  3.33
82. YTSSQKVWPIQIDGAGRTWQDSDT  3.33
83. YTSSQKVSPKQIDGAGRTWQDSDT  3.33
84. YTSSQKVSPIQIDGAERTWQDSDT  3.32
85. YTSSQKVSPIQLDGAGRTWQDSDT  3.29
86. YTSSQKVSPIQIDPAGRTWQDSDT  3.28
87. YTSSQKVSPIQIQGAGRTWQDSDT  3.27
88. YTSSQKVSPIQIDGIGRTWQDSDT  3.25
89. YTSSQKVGPIQIDGAGRTWQDSDT  3.25
90. YTSSQKVSPCQIDGAGRTWQDSDT  3.25
91. YTSSQKVSPIQIDGAPRTWQDSDT  3.24
92. YTSSQKVSPIQFDGAGRTWQDSDT  3.24
93. YTSSQKVSHIQIDGAGRTWQDSDT  3.22
94. YTSSQKVSPIQIDGAGLTWQDSDT  3.21
95. YTSSQKVSPIQIAGAGRTWQDSDT  3.2
96. YTSSQKVSPIQIDGARRTWQDSDT  3.19
97. YTSSQKVSPIQYDGAGRTWQDSDT  3.19
98. YTSSQKVQPIQIDGAGRTWQDSDT  3.17
99. YTSSQKVSPIMIDGAGRTWQDSDT  3.16
100. YTSSQKVSPIQIDWAGRTWQDSDT  3.16
101. YTSSQKVSPIQINGAGRTWQDSDT  3.15
102. YTSSQKVCPIQIDGAGRTWQDSDT  3.12
103. YTSSQKVSMIQIDGAGRTWQDSDT  3.12
104. YTSSQKVSPIRIDGAGRTWQDSDT  3.11
105. YTSSQKVPPIQIDGAGRTWQDSDT  3.1
106. YTSSQKVSPIQSDGAGRTWQDSDT  3.08
107. YTSSQKVSPIQIDGAARTWQDSDT  3.07
108. YTSSQKVSPIQIDGALRTWQDSDT  3.07
109. YTSSQKVSPIQIGGAGRTWQDSDT  3.07
110. YTSSQKVMPIQIDGAGRTWQDSDT  3.06
111. YTSSQKVSPIQIDGGGRTWQDSDT  3.04
112. YTSSQKVSPIQIDGCGRTWQDSDT  3.03
113. YTSSQKVSCIQIDGAGRTWQDSDT  3.02
114. YTSSQKVSPIQIDGAGYTWQDSDT  3.02
115. YTSSQKVSPIQIDGAGNTWQDSDT  3.02
116. YTSSQKVSPIQIDGAGRAWQDSDT  3.01
117. YTSSQKVSPIQIDGAVRTWQDSDT  3
118. YTSSQKVSPIQIDHAGRTWQDSDT  3
119. YTSSQKVSPIQIDGACRTWQDSDT  2.99
120. YTSSQKVSPIQIDGPGRTWQDSDT  2.99
121. YTSSQKVSPIQIDLAGRTWQDSDT  2.99
122. YTSSQKVSPIQIDGAQRTWQDSDT  2.97
123. YTSSQKVSPIQVDGAGRTWQDSDT  2.97
124. YTSSQKVSPIAIDGAGRTWQDSDT  2.96
125. YTSSQKVSPIQIDGSGRTWQDSDT  2.95
126. YTSSQKVSPIQIDGLGRTWQDSDT  2.93
127. YTSSQKVSPIQIDGYGRTWQDSDT  2.91
128. YTSSQKVSPIQIDGASRTWQDSDT  2.9
129. YTSSQKVDPIQIDGAGRTWQDSDT  2.9
130. YTSSQKVSPIQIDGAYRTWQDSDT  2.89
131. YTSSQKVSPIQIPGAGRTWQDSDT  2.87
132. YTSSQKVSPIQITGAGRTWQDSDT  2.87
133. YTSSQKVSPIQISGAGRTWQDSDT  2.86
134. YTSSQKVSPIVIDGAGRTWQDSDT  2.84
135. YTSSQKVSPIQIDFAGRTWQDSDT  2.83
136. YTSSQKVSPIQIDGVGRTWQDSDT  2.82
137. YTSSQKVLPIQIDGAGRTWQDSDT  2.82
138. YTSSQKVSPILIDGAGRTWQDSDT  2.8
139. YTSSQKVSPIQICGAGRTWQDSDT  2.79
140. YTSSQKVSPIQIDYAGRTWQDSDT  2.78
141. YTSSQKVSPIQIDVAGRTWQDSDT  2.78
142. YTSSQKVSPIQIKGAGRTWQDSDT  2.77
143. YTSSQKVSPIQIDMAGRTWQDSDT  2.77
144. YTSSQKVFPIQIDGAGRTWQDSDT  2.75
145. YTSSQKVSPIQIDGKGRTWQDSDT  2.73
146. YTSSQKVSPIIIDGAGRTWQDSDT  2.72
147. YTSSQKVSPIQIDGATRTWQDSDT  2.7
148. YTSSQKVSPIQCDGAGRTWQDSDT  2.7
149. YTSSQKVSIIQIDGAGRTWQDSDT  2.69
150. YTSSQKVVPIQIDGAGRTWQDSDT  2.67
151. YTSSQKVRPIQIDGAGRTWQDSDT  2.67
152. YTSSQKVSVIQIDGAGRTWQDSDT  2.66
153. YTSSQKVSPIQIHGAGRTWQDSDT  2.64
154. YTSSQKVSPIQIDGHGRTWQDSDT  2.6
155. YTSSQKVHPIQIDGAGRTWQDSDT  2.57
156. YTSSQKVSPIQIDGRGRTWQDSDT  2.56
157. YTSSQKVSPIQWDGAGRTWQDSDT  2.55
158. YTSSQKVSPIQIDGAIRTWQDSDT  2.54
159. YTSSQKVSPIQIDIAGRTWQDSDT  2.5
160. YTSSQKVSPICIDGAGRTWQDSDT  2.47
161. YTSSQKVSPIQIDGFGRTWQDSDT  2.45
162. YTSSQKVSPWQIDGAGRTWQDSDT  2.4
163. YTSSQKVSPIQIVGAGRTWQDSDT  2.39
164. YTSSQKVSPIQIRGAGRTWQDSDT  2.36
165. YTSSQKVSPIQIIGAGRTWQDSDT  2.35
166. YTSSQKVIPIQIDGAGRTWQDSDT  2.35
167. YTSSQKVSPIQIDGAGFTWQDSDT  2.33
168. YTSSQKVSPIQIDGAGWTWQDSDT  2.32
169. YTSSQKVSPIQIDGAFRTWQDSDT  2.3
170. YTSSQKVSPIQILGAGRTWQDSDT  2.29
171. YTSSQKVSPIQIDGAGHTWQDSDT  2.24
172. YTSSQKVSYIQIDGAGRTWQDSDT  2.22
173. YTSSQKVSPIQIMGAGRTWQDSDT  2.21
174. YTSSQKVSPIYIDGAGRTWQDSDT  2.2
175. YTSSQKVSPIQIDGAGMTWQDSDT  2.18
176. YTSSQKVYPIQIDGAGRTWQDSDT  2.16
177. YTSSQKVSPIFIDGAGRTWQDSDT  2.06
178. YTSSQKVSPIGIDGAGRTWQDSDT  2.06
179. YTSSQKVSFIQIDGAGRTWQDSDT  2.05
180. YTSSQKVSPIQIYGAGRTWQDSDT  1.96
181. YTSSQKVSPIQIDRAGRTWQDSDT  1.95
182. YTSSQKVSPIQIDGANRTWQDSDT  1.93
183. YTSSQKVSPFQIDGAGRTWQDSDT  1.85
184. YTSSQKVSPIQIDGWGRTWQDSDT  1.67
185. YTSSQKVSPIQIFGAGRTWQDSDT  1.67
186. YTSSQKVSPIQIDGAWRTWQDSDT  1.61
187. YTSSQKVSPYQIDGAGRTWQDSDT  1.57
188. YTSSQKVSPIQIWGAGRTWQDSDT  1.54
